Ends that are not written are not given here.
What was measured:
Test in all cases: peptide microarray
ApoC3 peptide … W65G = target: T1, ApoC3 peptide … W65G (human, not fully specified (bridges); also: cyclic constrained, ring type and places not given here)
T1 peptide: DKFSEFGDLDPEV
In short: (§1)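 ApoC3 peptide microarrays incubated with antibody samples and then stained with goat anti-human IgG (Fc) DyLight680 plus anti-HA DyLight800 control antibody. Scanned at intensity 7/7 (red/green); a secondary-only prestain checked for background, and framing HA peptides served as quality control.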

ApoC3 peptide … F61M = target: T2, ApoC3 peptide … F61M (human, not fully specified (bridges); also: cyclic constrained)
T2 peptide: DKMSEFWDLDPEV
In short: as §1

ApoC3 peptide … S62H = ApoC3 peptide … S62H (human, cyclic constrained)
In short: as §1

ApoC3 peptide … F61S = target: T3, ApoC3 peptide … F61S (human, not fully specified (bridges); also: cyclic constrained)
T3 peptide: DKSSEFWDLDPEV
In short: as §1

ApoC3 peptide … F64I = target: T4, ApoC3 peptide … F64I (human, not fully specified (bridges); also: cyclic constrained)
T4 peptide: DKFSEIWDLDPEV
In short: as §1

ApoC3 peptide … E63M = ApoC3 peptide … E63M (human, cyclic constrained)
In short: as §1

ApoC3 peptide … D68H = target: T5, ApoC3 peptide … D68H (human, cyclic constrained)
T5 peptide: DKFSEFWDLHPEV
In short: as §1

ApoC3 peptide … L67F = target: T6, ApoC3 peptide … L67F (human, not fully specified (bridges); also: cyclic constrained)
T6 peptide: DKFSEFWDFDPEV
In short: as §1

ApoC3 peptide … D68M = target: T7, ApoC3 peptide … D68M (human, cyclic constrained)
T7 peptide: DKFSEFWDLMPEV
In short: as §1

ApoC3 peptide … D66H = target: T8, ApoC3 peptide … D66H (human, not fully specified (bridges); also: cyclic constrained)
T8 peptide: DKFSEFWHLDPEV
In short: as §1

ApoC3 peptide … D66W = target: T9, ApoC3 peptide … D66W (human, not fully specified (bridges); also: cyclic constrained)
T9 peptide: DKFSEFWWLDPEV
In short: as §1

ApoC3 peptide … D59E = target: T10, ApoC3 peptide … D59E (human, cyclic constrained)
T10 peptide: EKFSEFWDLDPEV
In short: as §1

ApoC3 peptide … F64K = target: T11, ApoC3 peptide … F64K (human, not fully specified (bridges); also: cyclic constrained)
T11 peptide: DKFSEKWDLDPEV
In short: as §1

ApoC3 peptide … D68G = target: T12, ApoC3 peptide … D68G (human, cyclic constrained)
T12 peptide: DKFSEFWDLGPEV
In short: as §1

ApoC3 peptide … E70H = target: T13, ApoC3 peptide … E70H (human, not fully specified (bridges); also: cyclic constrained)
T13 peptide: DKFSEFWDLDPHV
In short: as §1

ApoC3 peptide … L67V = target: T14, ApoC3 peptide … L67V (human, not fully specified (bridges); also: cyclic constrained)
T14 peptide: DKFSEFWDVDPEV
In short: as §1

ApoC3 peptide … F61C = target: T15, ApoC3 peptide … F61C (human, cyclic constrained)
T15 peptide: DKCSEFWDLDPEV
In short: as §1

ApoC3 peptide … W65A = ApoC3 peptide … W65A (human, cyclic constrained)
In short: as §1

ApoC3 peptide … F61V = target: T16, ApoC3 peptide … F61V (human, not fully specified (bridges); also: cyclic constrained)
T16 peptide: DKVSEFWDLDPEV
In short: as §1

ApoC3 peptide … E63D = ApoC3 peptide … E63D (human, cyclic constrained)
In short: as §1

ApoC3 peptide … V71Y = ApoC3 peptide … V71Y (human, cyclic constrained)
In short: as §1

ApoC3 peptide … E63Q = ApoC3 peptide … E63Q (human, cyclic constrained)
In short: as §1

ApoC3 peptide … D59P = target: T17, ApoC3 peptide … D59P (human, cyclic constrained)
T17 peptide: PKFSEFWDLDPEV
In short: as §1

ApoC3 peptide … D68R = target: T18, ApoC3 peptide … D68R (human, cyclic constrained)
T18 peptide: DKFSEFWDLRPEV
In short: as §1

ApoC3 peptide … F64R = target: T19, ApoC3 peptide … F64R (human, not fully specified (bridges); also: cyclic constrained)
T19 peptide: DKFSERWDLDPEV
In short: as §1

ApoC3 peptide … K60S = target: T20, ApoC3 peptide … K60S (human, not fully specified (bridges); also: cyclic constrained)
T20 peptide: DSFSEFWDLDPEV
In short: as §1

ApoC3 peptide … P69M = target: T21, ApoC3 peptide … P69M (human, not fully specified (bridges); also: cyclic constrained)
T21 peptide: DKFSEFWDLDMEV
In short: as §1

ApoC3 peptide … P69E = target: T22, ApoC3 peptide … P69E (human, not fully specified (bridges); also: cyclic constrained)
T22 peptide: DKFSEFWDLDEEV
In short: as §1

ApoC3 peptide … P69S = ApoC3 peptide … P69S (human, cyclic constrained)
In short: as §1

ApoC3 peptide … D68A = target: T23, ApoC3 peptide … D68A (human, not fully specified (bridges); also: cyclic constrained)
T23 peptide: DKFSEFWDLAPEV
In short: as §1

ApoC3 peptide … F64M = target: T24, ApoC3 peptide … F64M (human, not fully specified (bridges); also: cyclic constrained)
T24 peptide: DKFSEMWDLDPEV
In short: as §1

ApoC3 peptide … F64Y = target: T25, ApoC3 peptide … F64Y (human, not fully specified (bridges); also: cyclic constrained)
T25 peptide: DKFSEYWDLDPEV
In short: as §1

ApoC3 peptide … E70P = target: T26, ApoC3 peptide … E70P (human, not fully specified (bridges); also: cyclic constrained)
T26 peptide: DKFSEFWDLDPPV
In short: as §1

ApoC3 peptide … D66K = target: T27, ApoC3 peptide … D66K (human, not fully specified (bridges); also: cyclic constrained)
T27 peptide: DKFSEFWKLDPEV
In short: as §1

ApoC3 peptide … D59G = target: T28, ApoC3 peptide … D59G (human, cyclic constrained)
T28 peptide: GKFSEFWDLDPEV
In short: as §1

ApoC3 peptide … P69T = ApoC3 peptide … P69T (human, cyclic constrained)
In short: as §1

ApoC3 peptide … V71R = ApoC3 peptide … V71R (human, cyclic constrained)
In short: as §1

% of binding to wild-type peptide (ApoC3 peptide … W65G): 49.5%
% of binding to wild-type peptide (ApoC3 peptide … F61M): 56.5%
% of binding to wild-type peptide (ApoC3 peptide … S62H): 26.5%
% of binding to wild-type peptide (ApoC3 peptide … F61S): 39.2%
% of binding to wild-type peptide (ApoC3 peptide … F64I): 100%
% of binding to wild-type peptide (ApoC3 peptide … E63M): 43.5%
% of binding to wild-type peptide (ApoC3 peptide … D68H): 0%
% of binding to wild-type peptide (ApoC3 peptide … L67F): 26.3%
% of binding to wild-type peptide (ApoC3 peptide … D68M): 0%
% of binding to wild-type peptide (ApoC3 peptide … D66H): 0%
% of binding to wild-type peptide (ApoC3 peptide … D66W): 0%
% of binding to wild-type peptide (ApoC3 peptide … D59E): 170%
% of binding to wild-type peptide (ApoC3 peptide … F64K): 107%
% of binding to wild-type peptide (ApoC3 peptide … D68G): 0%
% of binding to wild-type peptide (ApoC3 peptide … E70H): 0.03%
% of binding to wild-type peptide (ApoC3 peptide … L67V): 56.5%
% of binding to wild-type peptide (ApoC3 peptide … F61C): 20.6%
% of binding to wild-type peptide (ApoC3 peptide … W65A): 26.4%
% of binding to wild-type peptide (ApoC3 peptide … F61V): 47%
% of binding to wild-type peptide (ApoC3 peptide … E63D): 77.9%
% of binding to wild-type peptide (ApoC3 peptide … V71Y): 87.3%
% of binding to wild-type peptide (ApoC3 peptide … E63Q): 46.3%
% of binding to wild-type peptide (ApoC3 peptide … D59P): 107%
% of binding to wild-type peptide (ApoC3 peptide … D68R): 0.66%
% of binding to wild-type peptide (ApoC3 peptide … F64R): 79.1%
% of binding to wild-type peptide (ApoC3 peptide … K60S): 156%
% of binding to wild-type peptide (ApoC3 peptide … P69M): 44.1%
% of binding to wild-type peptide (ApoC3 peptide … P69E): 152%
% of binding to wild-type peptide (ApoC3 peptide … P69S): 75.6%
% of binding to wild-type peptide (ApoC3 peptide … D68A): 0%
% of binding to wild-type peptide (ApoC3 peptide … F64M): 109%
% of binding to wild-type peptide (ApoC3 peptide … F64Y): 86.4%
% of binding to wild-type peptide (ApoC3 peptide … E70P): 2.53%
% of binding to wild-type peptide (ApoC3 peptide … D66K): 0.33%
% of binding to wild-type peptide (ApoC3 peptide … D59G): 87.5%
% of binding to wild-type peptide (ApoC3 peptide … P69T): 118%
% of binding to wild-type peptide (ApoC3 peptide … V71R): 47.5%
B1: anti-ApoC3 antibody 6A6 (antibody, V domains shown)
VH: EVQLVESGGGLVQPGGSLRLSCAASGFTFSSYAGRWVRQVPGKGLEWVSSINAGGGSTSYADSVKGRFTISRDNAKNTLYLQMNSLKPEDTAKYYCTQNSYRYWGQGTRVAVSS
VL: DVVLTQTPGSLSVVPGESASISCKASQSLIHTDGKTYLYWLLQKPGQRPQLLIYQVSSHESGVPDRFTGSGSGTDFTLKISGVKAEDAGVYYCAQATYNPRTFGQGTKLEIK
notes: it was detected with goat anti-human IgG (Fc); also called mAb 6A6; llama antibody 6A6

— patent US20190241648A1 (STATEN BIOTECHNOLOGY B V, published 2019)
